The source of these data is paper PMC7293203 (Chembiochem : a European journal of chemical biology, 2019).

The data set “native MS” concerns the molecule itself. Put plainly: native MS.
For data set [1], the target named is tryptophan synthase α-subunit TrpA from Zea mays, wild type (Zea mays). Description: activity titration.

For orientation: stoichiometry N means the number of molecules, sites or subunits per partner or assembly. Broadly, the Kd is the constant that tells how readily two partners part at equilibrium.

B1: tryptophan synthase β-subunit TrpB1 from Zea mays (enzyme)
chain: GRFGGKYVPETLMHALTELENAFHALATDDEFQKELDGILKDYVGRESPLYFAERLTEHYKRADGTGPLIYLKREDLNHRGAHKINNAVAQALLAKRLGKQRIIAETGAGQHGVATATVCARFGLQCIIYMGAQDMERQALNVFRMKLLGAEVRAVHSGTATLKDATSEAIRDWVTNVETTHYILGSVAGPHPYPMMVREFHKVIGKETRRQAMHKWGGKPDVLVACVGGGSNAMGLFHEFVEDQDVRLIGVEAAGHGVDTDKHAATLTKGQVGVLHGSMSYLLQDDDGQVIEPHSISAGLDYPGVGPEHSFLKDIGRAEYDSVTDQEALDAFKRVSRLEGIIPALETSHALAYLEKLCPTLPDGVRVVLNCSGRGDKDVHTASKYLDV
With B1, in “native MS”, the “stoichiometry N” value is 2. In data set [1], this molecule showed a Kd of 0.5 µM.
